{"source": "patent US7960155B1", "about": "“Cytochrome p450 monooxygenases and their use for oxidizing organic compounds” (BASF Aktiengesellschaft, priority 1999, dated 2011)", "key": {"[1]": {"assay": "Activity test for the indole hydroxylation (kinetic parameters)", "assay_type": "biochemical", "settings": "excess of purified enzyme and high indole concentration for the wild type", "procedure": "The indole hydroxylation activity was tested in a solution which contained 8 μl of a 10-500 mM indole solution in DMSO, 850 μl of tris/HCl buffer (0.1 M, pH 8.2) and 0.6 nmol of P450 BM-3 wild type or mutant in a final volume of 1 ml. The mixture was preincubated for 9 min before the reaction was started by addition of 50 μl of an aqueous 1 mM solution of NADPH. The reaction was stopped after 20 sec by addition of 60 μl of 1.2 M KOH. Within 5 to 30 sec (under aerobic conditions), the enzyme products were converted completely into indigo [Δ^2,2′-biindoline]-3,3′-dione) and indirubin ([Δ^2,3′-biindoline]-2′,3-dione). The indigo production was determined by means of its absorption at 670 nm. […] A linear curve was obtained for indigo production in a reaction time of 40 sec using 0.6 nmol of wild type or P450 BM-3 mutant and 0.05 to 5.0 mM of indole. […] The formation of indirubin was neglected in the determination of the kinetic parameters. The NADPH consumption was determined at 340 nm and calculated as described (17) using an extinction coefficient of 6.2 mM^−1 cm^−1.\nPure samples of the wild-type enzyme P450 BM-3 and of the mutants Leu188Gln, Phe87Val, F87L188 and F87L188A74 were used for the determination of the kinetic parameters of indole hydroxylation."}, "[2]": {"assay": "Production of indigo using isolated enzymes (colour reaction with indole and NADPH)", "assay_type": "biochemical", "source_text": "It is known that indigo is accessible from indole by microbial transformation (24-26). None of these microbial systems, however, contained a P450 monooxygenase. According to the invention, the catalytic activity of the pure enzyme for indole was first determined. The mutant F87L188A74 was mixed with indole. No color reaction could be observed. […] By adjustment of the pH of the reaction mixture to a value of approximately 11, 30 sec after addition of NADPH, the blue coloration was visible within a few seconds. […] The blue pigment was extracted using ethyl acetate and analyzed by TLC. The blue pigment again separated into a more rapidly running blue component and into a slower running red component. The Rf values and the absorption spectra were identical to those values of the extracts from the fermentation broth. The F87L188A74 mutant of P450 BM-3 is thus an indole hydroxylase."}}, "data": [{"molecule": "WT: wild-type cytochrome P450 monooxygenase BM-3 from Bacillus megaterium (SEQ ID NO:2) (protein, listed as Bacillus megaterium) TIKEMPQPKTFGELKNLPLLNTDKPVQALMKIADELGEIFKFEAPGRVTRYLSSQRLIKEACDESRFDKNLSQALKFVRDFAGDGLFTSWTHEKNWKKAHNILLPSFSQQAMKGYHAMMVDIAVQLVQKWERLNADEHIEVPEDMTRLTLDTIGLCGFNYRFNSFYRDQPHPFITSMVRALDEAMNKLQRANPDDPAYDENKRQFQEDIKVMNDLVDKIIADRKASGEQSDDLLTHMLNGKDPETGEPLDDENIRYQIITFLIAGHETTSGLLSFALYFLVKNPHVLQKAAEEAARVLVDPVPSYKQVKQLKYVGMVLNEALRLWPTAPAFSLYAKEDTVLGGEYPLEKGDELMVLIPQLHRDKTIWGDDVEEFRPERFENPSAIPQHAFKPFGNGQRACIGQQFALHEATLVLGMMLKHFDFEDHTNYELDIKETLTLKPEGFVVKAKSKKIPLGGIPSPSTEQSAKKVRKKAENAHNTPLLVLYGSNMGTAEGTARDLADIAMSKGFAPQVATLDSHAGNLPREGAVLIVTASYNGHPPDNAKQFVDWLDQASADEVKGVRYSVFGCGDKNWATTYQKVPAFIDETLAAKGAENIADRGEADASDDFEGTYEEWREHMWSDVAAYFNLDIENSEDNKSTLSLQFVDSAADMPLAKMHGAFSTNVVASKELQQPGSARSTRHLEIELPKEASYQEGDHLGVIPRNYEGIVNRVTARFGLDASQQIRLEAEEEKLAHLPLAKTVSVEELLQYVELQDPVTRTQLRAMAAKTVCPPHKVELEALLEKQAYKEQVLAKRLTMLELLEKYPACEMKFSEFIALLPSIRPRYYSISSSPRVDEKQASITVSVVSGEAWSGYGEYKGIASNYLAELQEGDTITCFISTPQSEFTLPKDPETPLIMVGPGTGVAPFRGFVQARKQLKEQGQSLGEAHLYFGCRSPHEDYLYQEELENAQSEGIITLHTAFSRMPNQPKTYVQHVMEQDGKKLIELLDQGAHFYICGDGSQMAPAVEATLMKSYADVHQVSEADARLWLQQLEEKGRYAKDVWAG", "values": [{"measurement": "indole oxidation activity (in words)", "setting": "[1]", "value": "not able to oxidize indole"}, {"measurement": "blue pigment formation with pure enzyme, indole and NADPH", "setting": "[2]", "value": "always negative"}]}]}
